Data taken from publication PMC4571342 (Molecular Biology of the Cell, 2015).

Target: the molecule itself
Test: AUC

B1: C-terminal region (amino acids 104–278) of Lnp1 fused to maltose-binding protein (domain or fragment)
chain: FYNNNRLRKLAKLRAIHQKKLEKLKEETHYNATSSIIQRFSSGEDQNDDAMVLLDDELNAKYQELNNLKTELEKFKKESHVKGLKKEDSDAWFDKIISVLAGGNELDSTSSLSPFKKIICPQCHWKSNCYRLASKPIIFICPHCNHKIDEVKEREDAIEAKQPAQPSQSEKEKTK
stoichiometry N: 2
